Values joined by “and” are separate entries in the source; they are usually repeats but may differ in a detail not shown here. Identical values can stand only once. Blank lines part the entries; values can stand above or below the binder they belong to.
Biological target: T1, human epidermal growth factor receptor (EGFR) (Homo sapiens, UniProt P00533)
T1 construct: human epidermal growth factor receptor, used as a 'monovalent antigen' in solution
Test: SPR; ProteOn XPR36 one-shot kinetics; antibodies amine-coupled onto GLC chips, EGFR injected as monovalent analyte for 3 min (5fold and 3fold series, top 56 nM; over matuzumab 3fold series, top 278 nM); 25°C, PBS + 0.01% Tween-20; global Langmuir model with mass transport; apparent
Details: both partners purified

- Kd: 1.9 nM and 1.7 nM
- koff: 0.0035 s⁻¹ and 0.003 s⁻¹
- kon: 1.9e+06 M⁻¹ s⁻¹ and 1.8e+06 M⁻¹ s⁻¹
B1: duligotuzumab (DL11) Fab fragment (Fab, V domains shown)
VH: EVQLVESGGGLVQPGGSLRLSCAASGFTLSGDWIHWVRQAPGKGLEWLGEISAAGGYTDYADSVKGRFTISADTSKNTAYLQMNSLRAEDTAVYYCARESRVSFEAAMDYWGQGTLVTVSS
VL: DIQMTQSPSSLSASVGDRVTITCRASQDLATDVAWYQQKPGKAPKLLIYSASFLYSGVPSRFSGSGSGTDFTLTISSLQPEDFATYYCQQSEPEPYTFGQGTKVEIK
notes: Fab heavy chain of duligotuzumab; light chain of duligotuzumab; source: Expi293 transient expression, co-transfection of heavy and light chain vectors, purified (IMAC, Ni Sepharose Excel)

- Kd: 93.1 nM and 92.6 nM
- koff: 0.034 s⁻¹ and 0.031 s⁻¹
- kon: 360000 M⁻¹ s⁻¹ and 340000 M⁻¹ s⁻¹
B2: matuzumab Fab fragment (Fab, V domains shown)
VH: QVQLVQSGAEVKKPGASVKVSCKASGYTFTSHWMHWVRQAPGQGLEWIGEFNPSNGRTNYNEKFKSKATMTVDTSTNTAYMELSSLRSEDTAVYYCASRDYDYAGRYFDYWGQGTLVTVSS
VL: DIQMTQSPSSLSASVGDRVTITCSASSSVTYMYWYQQKPGKAPKLLIYDTSNLASGVPSRFSGSGSGTDYTFTISSLQPEDIATYYCQQWSSHIFTFGQGTKVEIK
notes: Fab heavy chain of matuzumab; light chain of matuzumab; source: Expi293 transient expression, co-transfection of heavy and light chain vectors, purified (IMAC, Ni Sepharose Excel)

- Kd: 1.5 nM and 1.6 nM
- koff: 0.0036 s⁻¹ and 0.0059 s⁻¹
- kon: 3.9e+06 M⁻¹ s⁻¹ and 2.2e+06 M⁻¹ s⁻¹
B3: necitumumab (IMC-11F8) Fab fragment (Fab, V domains shown)
VH: QVQLQESGPGLVKPSQTLSLTCTVSGGSISSGDYYWSWIRQPPGKGLEWIGYIYYSGSTDYNPSLKSRVTMSVDTSKNQFSLKVNSVTAADTAVYYCARVSIFGVGTFDYWGQGTLVTVSS
VL: EIVMTQSPATLSLSPGERATLSCRASQSVSSYLAWYQQKPGQAPRLLIYDASNRATGIPARFSGSGSGTDFTLTISSLEPEDFAVYYCHQYGSTPLTFGGGTKAEIK
notes: Fab heavy chain of necitumumab; light chain of necitumumab; source: Expi293 transient expression, co-transfection of heavy and light chain vectors, purified (IMAC, Ni Sepharose Excel)

Reference: article PMC5218414 (PLoS ONE, 2017)
